Source: patent publication US20200277374A1 (Alector, published 2020)

Biological target: T1, human Siglec-7 expressed on human cells (primary monocytes, dendritic cells, macrophages, NK cells, … (human, UniProt Q9Y286 19-467))
T1 construct: Endogenous receptor on cells; also called Siglec-7 receptor
Experiment: FACS, human primary macrophages, 10 ug/ml mAb

T1 sequence (Q9Y286 19-467): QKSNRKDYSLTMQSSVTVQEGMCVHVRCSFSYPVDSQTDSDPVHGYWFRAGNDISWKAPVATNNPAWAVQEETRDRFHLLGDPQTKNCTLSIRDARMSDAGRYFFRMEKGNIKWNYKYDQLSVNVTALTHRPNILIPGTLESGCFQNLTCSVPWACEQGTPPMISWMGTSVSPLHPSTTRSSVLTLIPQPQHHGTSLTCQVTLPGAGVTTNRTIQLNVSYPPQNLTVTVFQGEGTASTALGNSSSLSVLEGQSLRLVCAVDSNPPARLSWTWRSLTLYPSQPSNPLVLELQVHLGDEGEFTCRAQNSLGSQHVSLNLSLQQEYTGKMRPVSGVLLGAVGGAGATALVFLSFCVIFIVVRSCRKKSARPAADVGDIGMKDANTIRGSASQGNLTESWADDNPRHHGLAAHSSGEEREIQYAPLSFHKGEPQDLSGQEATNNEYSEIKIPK

% Positive: 99.7%
MFI: 6030
B1: anti-Siglec-7 antibody 10B5 (antibody, V domains shown)
VH: QVHLQQSGPELVKPGASVKISCKASGYAFTNCWMNWVRQRPGKGLDWIGRIFPGNGHTNYSGKFKDKATLTEDKSSSTAYMQLSSLTSEDSAVYFCARDYSDYYFDYWGQGTTLTVSS
VL: DVQMTQTTSSLSASLGDRVTISCRASQDINTYLNWYQQKPDGTVKLLIYYTSRLHSGVPSRFSGSGSGTDYSLTISNLEQEDIATYFCQQGNTLPWTFGGGTKLEIK
notes: that light chain holds several Z and differs in its CDRs from S7-10B5.1 / 10B5L1; also called S7-10B5; mAb S7-10B5
